In ChEMBL document CHEMBL1157618, “Noncovalent tripeptidyl benzyl- and cyclohexyl-amine inhibitors of the cysteine protease caspase-1” (J Med Chem, 2010):

Substrate: CC(C)[C@H](NC(=O)c1ccc2ccccc2c1)C(=O)N[C@@H](C)C(=O)N[C@H](CNCc1ccccc1O)CC(=O)O
Details: Homo sapiens
Description: Activity of human recombinant caspase 1

B1: Caspase-1 (Homo sapiens), P29466 (protein)
chain: MADKVLKEKRKLFIRSMGEGTINGLLDELLQTRVLNKEEMEKVKRENATVMDKTRALIDSVIPKGAQACQICITYICEEDSYLAGTLGLSADQTSGNYLNMQDSQGVLSSFPAPQAVQDNPAMPTSSGSEGNVKLCSLEEAQRIWKQKSAEIYPIMDKSSRTRLALIICNEEFDSIPRRTGAEVDITGMTMLLQNLGYSVDVKKNLTASDMTTELEAFAHRPEHKTSDSTFLVFMSHGIREGICGKKHSEQVPDILQLNAIFNMLNTKNCPSLKDKPKVIIIQACRGDSPGVVWFKDSVGVSGNLSLPTTEEFEDDAIKKAHIEKDFIAFCSSTPDNVSWRHPTMGSVFIGRLIEHMQEYACSCDVEEIFRKVRFSFEQPDGRAQMPTTERVTLTRCFYLFPGH
Km: 5.8 µM
